In the supplement of paper PMC6757056:
± gives the standard deviation of the averaged measurements.

B1: library; a variant is named by its letters at N, in order (parent)
chain: GCUGUCACCGAGAAACUGUGAAGUAUAUCUUAAACCUGGGCACUUAAAAGAUAUAUGGAGUUAGUAGUGCAACCUGCUCGGUCUGAUGAGUCCNNNNNNGGACGAAACAGC

Key:
cyclic di-GMP [1] = variants of: B1; test: normalized RNA/DNA level without ligand (relative to sTRSVctl = 100) (log10 (% of sTRSVctl)); HEK293T; ligand: cyclic di-GMP (c-di-GMP-II aptamer); higher = less ribozyme self-cleavage, higher mRNA level; conditions: reporter: mCherry (pCS4076), ligand present: no
Method in brief: (§1)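 HEK293T cells were transfected with library plasmids carrying ribozyme switches linked to an mCherry reporter, or an eGFP reporter in some ligand experiments, at 4 µg per well of a 6-well plate, with any ligand added 1 h beforehand. After 72 h, total RNA was extracted with EDTA, reverse-transcribed, amplified, barcoded and sequenced. RNA level was defined as RNA reads over DNA reads, normalized to a spiked-in non-cleaving sequence or to the top-ranked sequences. That value was multiplied by 100 and converted to log10, the top set was 25 sequences, and only sequences with ≥100 DNA reads were retained.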

cyclic di-GMP [2] = variants of: B1; test: normalized RNA/DNA level with ligand (relative to sTRSVctl = 100) (log10 (% of sTRSVctl)); HEK293T; ligand: cyclic di-GMP (c-di-GMP-II aptamer); ligand concentration (+) RNA-Seq: 1 mM; higher = less ribozyme self-cleavage, higher mRNA level; conditions: reporter: mCherry (pCS4076), ligand present: yes
Method in brief: as §1

Variant	normalized RNA/DNA level without ligand (log10) (cyclic di-GMP [1])	normalized RNA/DNA level with ligand (log10) (cyclic di-GMP [2])
GCUGUCACCGAGAAACUGUGAAGUAUAUCUUAAACCUGGGCACUUAAAAGAUAUAUGGAGUUAGUAGUGCAACCUGCUCGGUCUGAUGAGUCCUCCAUCGGACGAAACAGC [UCCAUC]	1.7 ± 0.0059	1.8 ± 0.13
GCUGUCACCGAGAAACUGUGAAGUAUAUCUUAAACCUGGGCACUUAAAAGAUAUAUGGAGUUAGUAGUGCAACCUGCUCGGUCUGAUGAGUCCUCCAUAGGACGAAACAGC [UCCAUA]	1.53 ± 0.033	1.74 ± 0.13
GCUGUCACCGAGAAACUGUGAAGUAUAUCUUAAACCUGGGCACUUAAAAGAUAUAUGGAGUUAGUAGUGCAACCUGCUCGGUCUGAUGAGUCCGCCAUCGGACGAAACAGC [GCCAUC]	1.564 ± 0.0079	1.77 ± 0.074
GCUGUCACCGAGAAACUGUGAAGUAUAUCUUAAACCUGGGCACUUAAAAGAUAUAUGGAGUUAGUAGUGCAACCUGCUCGGUCUGAUGAGUCCGCCAGAGGACGAAACAGC [GCCAGA]	1.48 ± 0.05	1.68 ± 0.1
GCUGUCACCGAGAAACUGUGAAGUAUAUCUUAAACCUGGGCACUUAAAAGAUAUAUGGAGUUAGUAGUGCAACCUGCUCGGUCUGAUGAGUCCGCCAGUGGACGAAACAGC [GCCAGU]	1.604 ± 0.016	1.82 ± 0.098
GCUGUCACCGAGAAACUGUGAAGUAUAUCUUAAACCUGGGCACUUAAAAGAUAUAUGGAGUUAGUAGUGCAACCUGCUCGGUCUGAUGAGUCCGCCAGCGGACGAAACAGC [GCCAGC]	1.67 ± 0.064	1.83 ± 0.18
GCUGUCACCGAGAAACUGUGAAGUAUAUCUUAAACCUGGGCACUUAAAAGAUAUAUGGAGUUAGUAGUGCAACCUGCUCGGUCUGAUGAGUCCCCCACUGGACGAAACAGC [CCCACU]	1.624 ± 0.014	1.83 ± 0.12
GCUGUCACCGAGAAACUGUGAAGUAUAUCUUAAACCUGGGCACUUAAAAGAUAUAUGGAGUUAGUAGUGCAACCUGCUCGGUCUGAUGAGUCCCCCACGGGACGAAACAGC [CCCACG]	1.75 ± 0.018	1.87 ± 0.044
GCUGUCACCGAGAAACUGUGAAGUAUAUCUUAAACCUGGGCACUUAAAAGAUAUAUGGAGUUAGUAGUGCAACCUGCUCGGUCUGAUGAGUCCCCCAGCGGACGAAACAGC [CCCAGC]	1.72 ± 0.03	1.84 ± 0.16
GCUGUCACCGAGAAACUGUGAAGUAUAUCUUAAACCUGGGCACUUAAAAGAUAUAUGGAGUUAGUAGUGCAACCUGCUCGGUCUGAUGAGUCCCCCAGUGGACGAAACAGC [CCCAGU]	1.736 ± 0.015	1.86 ± 0.068
GCUGUCACCGAGAAACUGUGAAGUAUAUCUUAAACCUGGGCACUUAAAAGAUAUAUGGAGUUAGUAGUGCAACCUGCUCGGUCUGAUGAGUCCCCCAGGGGACGAAACAGC [CCCAGG]	1.77 ± 0.025	1.89 ± 0.077
GCUGUCACCGAGAAACUGUGAAGUAUAUCUUAAACCUGGGCACUUAAAAGAUAUAUGGAGUUAGUAGUGCAACCUGCUCGGUCUGAUGAGUCCACCAGAGGACGAAACAGC [ACCAGA]	1.39 ± 0.11	1.6 ± 0.13
GCUGUCACCGAGAAACUGUGAAGUAUAUCUUAAACCUGGGCACUUAAAAGAUAUAUGGAGUUAGUAGUGCAACCUGCUCGGUCUGAUGAGUCCACCAGCGGACGAAACAGC [ACCAGC]	1.63 ± 0.064	1.77 ± 0.079
GCUGUCACCGAGAAACUGUGAAGUAUAUCUUAAACCUGGGCACUUAAAAGAUAUAUGGAGUUAGUAGUGCAACCUGCUCGGUCUGAUGAGUCCACCAGGGGACGAAACAGC [ACCAGG]	1.71 ± 0.037	1.77 ± 0.088
GCUGUCACCGAGAAACUGUGAAGUAUAUCUUAAACCUGGGCACUUAAAAGAUAUAUGGAGUUAGUAGUGCAACCUGCUCGGUCUGAUGAGUCCGCCACGGGACGAAACAGC [GCCACG]	1.68 ± 0.051	1.81 ± 0.12
GCUGUCACCGAGAAACUGUGAAGUAUAUCUUAAACCUGGGCACUUAAAAGAUAUAUGGAGUUAGUAGUGCAACCUGCUCGGUCUGAUGAGUCCGCCACUGGACGAAACAGC [GCCACU]	1.684 ± 0.016	1.86 ± 0.12
GCUGUCACCGAGAAACUGUGAAGUAUAUCUUAAACCUGGGCACUUAAAAGAUAUAUGGAGUUAGUAGUGCAACCUGCUCGGUCUGAUGAGUCCACCACGGGACGAAACAGC [ACCACG]	1.633 ± 0.01	1.81 ± 0.12
GCUGUCACCGAGAAACUGUGAAGUAUAUCUUAAACCUGGGCACUUAAAAGAUAUAUGGAGUUAGUAGUGCAACCUGCUCGGUCUGAUGAGUCCACCACUGGACGAAACAGC [ACCACU]	1.61 ± 0.062	1.82 ± 0.087
GCUGUCACCGAGAAACUGUGAAGUAUAUCUUAAACCUGGGCACUUAAAAGAUAUAUGGAGUUAGUAGUGCAACCUGCUCGGUCUGAUGAGUCCUCCACUGGACGAAACAGC [UCCACU]	1.695 ± 0.011	1.85 ± 0.12
GCUGUCACCGAGAAACUGUGAAGUAUAUCUUAAACCUGGGCACUUAAAAGAUAUAUGGAGUUAGUAGUGCAACCUGCUCGGUCUGAUGAGUCCUCCACCGGACGAAACAGC [UCCACC]	1.635 ± 0.0036	1.8 ± 0.12
GCUGUCACCGAGAAACUGUGAAGUAUAUCUUAAACCUGGGCACUUAAAAGAUAUAUGGAGUUAGUAGUGCAACCUGCUCGGUCUGAUGAGUCCUCCACGGGACGAAACAGC [UCCACG]	1.77 ± 0.057	1.87 ± 0.11
GCUGUCACCGAGAAACUGUGAAGUAUAUCUUAAACCUGGGCACUUAAAAGAUAUAUGGAGUUAGUAGUGCAACCUGCUCGGUCUGAUGAGUCCCCCAUCGGACGAAACAGC [CCCAUC]	1.728 ± 0.0037	1.84 ± 0.14
GCUGUCACCGAGAAACUGUGAAGUAUAUCUUAAACCUGGGCACUUAAAAGAUAUAUGGAGUUAGUAGUGCAACCUGCUCGGUCUGAUGAGUCCCCCAUGGGACGAAACAGC [CCCAUG]	1.53 ± 0.08	1.73 ± 0.13
GCUGUCACCGAGAAACUGUGAAGUAUAUCUUAAACCUGGGCACUUAAAAGAUAUAUGGAGUUAGUAGUGCAACCUGCUCGGUCUGAUGAGUCCACCAUCGGACGAAACAGC [ACCAUC]	1.68 ± 0.04	1.81 ± 0.13
GCUGUCACCGAGAAACUGUGAAGUAUAUCUUAAACCUGGGCACUUAAAAGAUAUAUGGAGUUAGUAGUGCAACCUGCUCGGUCUGAUGAGUCCUCCAGUGGACGAAACAGC [UCCAGU]	1.63 ± 0.021	1.84 ± 0.11
GCUGUCACCGAGAAACUGUGAAGUAUAUCUUAAACCUGGGCACUUAAAAGAUAUAUGGAGUUAGUAGUGCAACCUGCUCGGUCUGAUGAGUCCUCCAGGGGACGAAACAGC [UCCAGG]	1.81 ± 0.046	1.9 ± 0.14
